From patent US7309578B2, “Therapeutic treatment of chronic obstructive pulmonary disease” (The Trustees of Columbia University in the City of New York, priority 2000, dated 2007)

Key:
[1] = system: small airway epithelial cells, lung microvascular endothelial cells, lung fibroblasts; assay: Transfection of lung cells with a sFrp1 expression vector, caspase 3 activation assay (immunostaining); assay type: cell-based, human; details: 24 or 48 h after transfection
Excerpt: Transfection of Lung Cells with a sFrp1 Expression Vector: The mouse sFrp1 full length cDNA was generously provided by Drs. Jeremy Nathans and Amir Rattner, John Hopkins University, Baltimore, and subcloned into a pCMS-EGFP vector (Clontech, Palo Alto, Calif.). A gene of sFrp1w&s inserted into the multiple cloning site at EcoRI and Sail sites between the cytomegalovirus early promoter and SV40 polyadenilation signals, which direct proper processing of the 3′ end of sFrp1 mRNA. The vector also has a Gfp (green fluorescent protein) gene located in downstream of the sFrp1-SV40 polyadenilation signals and ligated between the SV40 enhancer/promoter sequence and a polyadenylation signal from the bovine growth hormone gene. This vector construct allows transcriptions of sFrp1 and Gfp as separate proteins in transfected cells. Normal human primary cultured cells of small airway epithelial cells (SAEC 6043), lung microvascular endothelial cells (HMVEC L 6521-3), and lung fibroblasts (NHLF 5975) were obtained from BioWhittaker (Walkersville, Md.) and cultured in proper media containing 10% fetal bovine serum. […] For Annexin-V-Biotin assay (Roche Diagnostics GmbH, Manheim, Germany), ceils were harvested at 72, 48, 24, 12 or 6 h after transfection and the reaction was detected by ExtraAvidin-Cy3 (Sigma). […]

[2] = system: small airway epithelial cells, lung microvascular endothelial cells, lung fibroblasts; assay: Transfection of lung cells with a sFrp1 expression vector, Annexin-V-Biotin assay; assay type: cell-based, human; details: for apoptosis-inducing activity on transfection: normal human primary lung epithelial, endothelial and fibroblast cells transfected with sFrp1-Gfp expression vector
Excerpt: Transfection of Lung Cells with a sFrp1 Expression Vector: The mouse sFrp1 full length cDNA was generously provided by Drs. Jeremy Nathans and Amir Rattner, John Hopkins University, Baltimore, and subcloned into a pCMS-EGFP vector (Clontech, Palo Alto, Calif.). A gene of sFrp1w&s inserted into the multiple cloning site at EcoRI and Sail sites between the cytomegalovirus early promoter and SV40 polyadenilation signals, which direct proper processing of the 3′ end of sFrp1 mRNA. The vector also has a Gfp (green fluorescent protein) gene located in downstream of the sFrp1-SV40 polyadenilation signals and ligated between the SV40 enhancer/promoter sequence and a polyadenylation signal from the bovine growth hormone gene. This vector construct allows transcriptions of sFrp1 and Gfp as separate proteins in transfected cells. Normal human primary cultured cells of small airway epithelial cells (SAEC 6043), lung microvascular endothelial cells (HMVEC L 6521-3), and lung fibroblasts (NHLF 5975) were obtained from BioWhittaker (Walkersville, Md.) and cultured in proper media containing 10% fetal bovine serum. Cells were plated 2 days before transfection in 4-well LabTek II chamber (Nalge Nunc International, Naperville, Ill.) at 2×10^4 cells/chamber and incubated at 37*C in 5% COj incubator. The sFrp1-Gjp expression vector or Gfp vector without sFrp gene (0.8 ujj) were transfected into cells using Lipofectaniine PLUS according to the manufacture's instruction (Gibco BRL). For Annexin-V-Biotin assay (Roche Diagnostics GmbH, Manheim, Germany), ceils were harvested at 72, 48, 24, 12 or 6 h after transfection and the reaction was detected by ExtraAvidin-Cy3 (Sigma). For caspase 3 activation assay, cells were fixed in 3% paraformaldehyde in PBS after 24 or 48 h of transfection and incubated with anti-human active caspase 3 antibody made by rabbit (x100, clone 9661. Cell Signaling Technology, Beverly, Mass.). Biotinylated goat IgG to rabbit IgG (Vector) and ExtraAvidin-Cy3 (Sigma) were used for detection of binding of a primary antibody.

B1: sFrp1: mouse secreted frizzled-related protein 1, expressed from full length cDNA in a pCMS-EGFP vector transfected into cells (protein, UniProt Q8C4U3 1-314, looked up)
chain: MGVGRSARGRGGAASGVLLALAAALLAAGSASEYDYVSFQSDIGSYQSGRFYTKPPQCVDIPVDLRLCHNVGYKKMVLPNLLEHETMAEVKQQASSWVPLLNKNCHMGTQVFLCSLFAPVCLDRPIYPCRWLCEAVRDSCEPVMQFFGFYWPEMLKCDKFPEGDVCIAMTPPNTTEASKPQGTTVCPPCDNELKSEAIIEHLCASEFALRMKIKEVKKENGDKKIVPKKKKPLKLGPIKKKELKRLVLFLKNGADCPCHQLDNLSHNFLIMGRKVKSQYLLTAIHKWDKKNKEFKNFMKRMKNHECPTFQSVFK
modifications: full-length
notes: mouse secreted frizzled-related protein 1, expressed from full length cDNA in a pCMS-EGFP vector transfected into cells
Q: For B1, which “active caspase 3 immunostaining” value [1] is on record?
A: presence of acive caspase 3 in and surrounding cells transfected sFrp1

Q: What about the “phosphatidylserine exposure to the outer cell membrane (annexin V assay)” value ([2]; 6-72 h after transfection, data not shown) of the same molecule?
A: time- and dose-dependency of cell death to sFrp1 expression

Q: What about the “apoptosis-inducing activity on transfection” value [2] of the same molecule?
A: apoptosis-inducing activity of sFrp1 without preference of cell-type examined

Q: What about the “apoptosis-inducing activity on transfection” value ([2]; listed as sFRP-1) of the same molecule?
A: leads to apoptosis in lung epithelial cells, endothelial cells and fibroblasts
